Molecular target: the molecule itself
Assay: cryo-EM structure; purified THIK1EM at 2.4 mg/mL in 150 mM KCl, 20 mM Tris pH 8, 0.01% GDN; 300 kV Titan Krios, RELION; 3.2 Å

B1: C-terminally truncated human THIK1 (KCNK13), residues 1 to 309 (domain or fragment, UniProt Q9HB14 1-309, looked up)
chain: MAGRGFSWGPGHLNEDNARFLLLAALIVLYLLGGAAVFSALELAHERQAKQRWEERLANFSRGHNLSRDELRGFLRHYEEATRAGIRVDNVRPRWDFTGAFYFVGTVVSTIGFGMTTPATVGGKIFLIFYGLVGCSSTILFFNLFLERLITIIAYIMKSCHQRQLRRRGALPQESLKDAGQCEVDSLAGWKPSVYYVMLILCTASILISCCASAMYTPIEGWSYFDSLYFCFVAFSTIGFGDLVSSQNAHYESQGLYRFANFVFILMGVCCIYSLFNVISILIKQSLNWILRKMDSGCCPQCQRGLLRS
modifications: N-glycosylation at N59 and N65
notes: C-terminally truncated; The N-terminal GFP-His10 tags were removed by PreScission (3C) protease at LEVLFQ/GP; residues of the cleavage site probably remain at the N-terminus (surmised); Homodimeric K2P channel in GDN detergent; also called THIK1EM; hTHIK1EM; source: HEK293 GnTi- cells, baculovirus (BacMam) infection, purified (GFP-nanobody resin, 3C cleavage, Superdex 200 in GDN); not shown: GFP, …
  stoichiometry N: 2

From paper PMC12002230, “The cryo-EM structure and physical basis for anesthetic inhibition of the THIK1 K2P channel” (Proceedings of the National Academy of Sciences of the …, 2025)
